{"source": "paper PMC10187114", "about": "“Structure of the endosomal Commander complex linked to Ritscher-Schinzel syndrome” (Cell, 2023)", "binders": {"B1": {"name": "VPS35L (16-38) peptide (peptide)", "peptide": "EFASCRLEAVPLEFGDYHPLKPI", "notes": "VPS35L, human, residues 16-38; also called VPS35L peptide (Glu16-Ile38); source: synthetic peptide (Genscript)"}, "B2": {"name": "CC1-CC2 complex (CCDC22(325–485) + CCDC93(310–488)), wild type (complex, human)", "chain 1": "VTWAAQEQELESLREQLEGVNRSIEEVEADMKTLGVSFVQAESECRHSKLSTAEREQALRLKSRAVELLPDGTANLAKLQLVVENSAQRVIHLAGQWEKHRVPLLAEYRHLRKLQDCRELESSRRLAEIQELHQSVRAAAEEARRKEEVYKQLMSELETLP", "chain 2": "GTSQLHRRKVISLNKQIAQKTKHLEELRASHTSLQARYNEAKKTLTELKTYSEKLDKEQAALEKIESKADPSILQNLRALVAMNENLKSQEQEFKAHCREEMTRLQQEIENLKAERAPRGDEKTLSSGEPPGTLTSAMTHDEDLDRRYNMEKEKLYKIRLLQARRNREIAILHRKIDEV", "notes": "CCDC22, human, CC1 and CC2 coiled-coil regions; CCDC93, human, CC1 and CC2 coiled-coil regions; also called CCDC22-CCDC93; source: E. coli BL21 (DE3), co-expressed (pRSF-duet), purified (Talon, gel filtration)"}, "B3": {"name": "CC1-CC2 complex, CCDC93 (M392R) (complex, human)", "chain 1": "B2 chain 1", "chain 2": "B2 chain 2 with M83R", "notes": "CCDC22, human, CC1 and CC2 coiled-coil regions; CCDC93, human, CC1 and CC2 coiled-coil regions; source: E. coli BL21 (DE3), co-expressed (pRSF-duet), purified (Talon, gel filtration)"}, "B4": {"name": "CC1-CC2 complex, CCDC22 (V360E) (complex, human)", "chain 1": "B2 chain 1 with V36E", "chain 2": "B2 chain 2", "notes": "as for B3"}}, "key": {"VPS29 (recombinant)": {"target": "VPS29 (recombinant) (human, UniProt Q9UBQ0 1-182)", "assay": "ITC; VPS35L peptides at 600 μM titrated into 20 μM VPS29, 100 mM Tris pH 7.4, 300 mM NaCl, 25°C, single site model", "conditions": "both partners purified"}, "DENND10 (recombinant)": {"target": "T1, DENND10 (recombinant) (human, UniProt Q8TCE6 1-357)", "T1 construct": "DENND10/FAM45A, human; also called FAM45A; recombinant DENND10; source: E. coli BL21 (DE3) (pGEX6P-1), purified (glutathione resin, gel filtration)", "T1 sequence (Q8TCE6 whole entry)": "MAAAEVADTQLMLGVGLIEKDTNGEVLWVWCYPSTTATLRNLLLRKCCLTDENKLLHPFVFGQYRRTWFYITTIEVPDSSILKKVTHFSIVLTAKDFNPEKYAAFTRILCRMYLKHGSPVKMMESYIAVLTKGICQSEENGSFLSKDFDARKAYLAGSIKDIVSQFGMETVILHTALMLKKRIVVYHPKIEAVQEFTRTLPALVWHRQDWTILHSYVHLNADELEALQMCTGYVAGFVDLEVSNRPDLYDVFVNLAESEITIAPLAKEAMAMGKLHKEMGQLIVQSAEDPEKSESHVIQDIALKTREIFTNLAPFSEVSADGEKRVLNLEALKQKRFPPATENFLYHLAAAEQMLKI", "assay": "ITC; 50 μM DENND10 titrated into 10 μM wild type or mutant CCDC22(325–485)+CCDC93(310–488) complex, 100 mM Tris pH 7.4, 300 mM NaCl, 25°C, single site model", "conditions": "both partners purified"}}, "note": "Positions count from the first letter of the chain named. Names and notes keep the numbering of the source. Values joined by “and” are separate entries in the source; they are usually repeats but may differ in a detail not shown here. Equal values may be shown once.", "data": [{"binder": "B1", "values": [{"measurement": "Kd", "setting": "VPS29 (recombinant)", "result": 1870, "unit": "nM"}]}, {"binder": "B2", "values": [{"measurement": "Kd", "setting": "DENND10 (recombinant)", "result": "34 nM and 28 nM"}]}, {"binder": "B3", "values": [{"measurement": "Kd", "setting": "DENND10 (recombinant)", "result": "89.1 ± 10", "unit": "nM"}]}, {"binder": "B4", "values": [{"measurement": "Kd", "setting": "DENND10 (recombinant)", "result": "47.9 ± 3.5", "unit": "nM"}]}]}
